Experimental data as given in patent US20230398218A1 (published 2023).
Read-outs that look alike come from different tables or passages of the source.

Columns and labels:
HLA-A24.02 [1] = molecular target: HLA-A24.02 (human); assay: competition with radiolabeled reference peptide on prepared MHC class I
HLA-A24.02 [2] = molecular target: HLA-A24.02 (human); assay: pMHC-I complex dissociation at 37 C, radiolabeled b2m
HLA-B08.01 [3] = molecular target: HLA-B08.01 (human); assay: as above
HLA-B08.01 [4] = molecular target: HLA-B08.01 (human); assay: as above; remark: listed apart in the source
HLA-A02.01 [5] = molecular target: HLA-A02.01 (human); assay: competition with radiolabeled reference peptide on prepared MHC class I
HLA-A02.01 [6] = molecular target: HLA-A02.01 (human); assay: pMHC-I complex dissociation at 37 C, radiolabeled b2m
HLA-A11.01 = HLA-A11.01 (human); assay: competition with radiolabeled reference peptide on prepared MHC class I
HLA-A01.01 [7] = molecular target: T1, HLA-A01.01 (human); assay: as above
T1 construct: in the stability assay the heavy chain is biotinylated and b2m iodine-labeled

HLA-A03.01 [8] = molecular target: HLA-A03.01 (human); assay: as above
HLA-A01.01 [9] = molecular target: T1, HLA-A01.01; assay: pMHC-I complex dissociation at 37 C, radiolabeled b2m
HLA-A03.01 [10] = molecular target: HLA-A03.01 (human); assay: as above
HLA-B08.01 [11] = molecular target: HLA-B08.01 (human); assay: competition with radiolabeled reference peptide on prepared MHC class I
[12] = molecular target: T2, HLA-A*03:01 expressed in 293T or SW620 cells (human); assay: targeted MS/MS (PRM) of peptides eluted from HLA-peptide complexes, 293T cells
T2 construct: whole, on cells; HLA of cells from which peptides were eluted for MS/MS
Experimental: To assess whether antigens could be processed and presented from the larger polypeptide context, peptides eluted from HLA molecules isolated from cells expressing the genes of interest were analyzed by tandem mass spectrometry (MS/MS).
For analysis of presentation of RAS neoantigens, cell lines were utilized that have RAS mutations naturally or were lentivirally transduced to express the mutated RAS gene. HLA molecules were either isolated based on the natural expression of the cell lines or the cell lines were lentivirally transduced or transiently transfected to express the HLA of interest. […] Eluted peptides were then analyzed by targeted MS/MS with parallel reaction monitoring (PRM).

Binder: EYMANGSLL (also called BTK, C481S peptide)
- Affinity (HLA-A24.02 [1]): 4.96 nM
- Stability (half-life (hr.)) (HLA-A24.02 [2]): 343 min

Binder: IMQLMPFGCL
- Stability (half-life (hr.)) (HLA-B08.01 [3]): 0 h

Binder: MANGSLLNYL
- Stability (half-life (hr.)) (HLA-B08.01 [4]): 0 h

Binder: LIMQLMPFGC
- Affinity (HLA-A02.01 [5]): 132 nM
- Stability (half-life (hr.)) (HLA-A02.01 [6]): 22.9 min

Binder: MQLMPFGCLL
- Stability (half-life (hr.)) (HLA-B08.01 [3]): 0 h

Binder: VQLIMQLMPF (also called VOLIMQLMPF)
- Stability (half-life (hr.)) (HLA-B08.01 [3]): 0 h

Binder: MANGSLLNY (also called BTK, C481S peptide)
- Affinity (HLA-A11.01): 536 nM
- Affinity (HLA-A01.01 [7]): 439 nM
- Affinity (HLA-A03.01 [8]): 35.6 nM
- Stability (half-life (hr.)) (HLA-A01.01 [9]): 13 min
- Stability (half-life (hr.)) (HLA-A03.01 [10]): 14.3 min

Binder: SLLNYLREM
- Affinity (HLA-B08.01 [11]): 960 nM
- Stability (half-life (hr.)) (HLA-B08.01 [4]): 0 h

Binder: YMANGSLLNY (also called BTK, C481S peptide)
- Affinity (HLA-A11.01): 974 nM
- Affinity (HLA-A01.01 [7]): 13.2 nM
- Affinity (HLA-A03.01 [8]): 95.9 nM
- Stability (half-life (hr.)) (HLA-A01.01 [9]): 52 min
- Stability (half-life (hr.)) (HLA-A03.01 [10]): 16.7 min

Binder: QLIMQLMPF
- Stability (half-life (hr.)) (HLA-B08.01 [3]): 0 h

B1: VVVGAVGVGK (peptide)
peptide: VVVGAVGVGK
notes: Endogenously processed RAS G12V peptide eluted from HLA-peptide complexes
- binding result [12]: binds

Binder: MQLMPFGCL
- Stability (half-life (hr.)) (HLA-B08.01 [3]): 0 h
